{"source": "the RNAGym collection of RNA variant scans (doi:10.7554/elife.90254)", "parents": {"B1": {"name": "LINE1-full (parent)", "chain": "UACGUAGGUGGUUUUCCCCUGAUAGUGCUAAGGGGGCCUGGAAGUUUGGACUGGGCAGAGCUCAACACAGCGUGGCAAAGUGGCUGUGGCUAGACUGCCUCUCUGGAUUCCUCGUCACUCAGCAGGGCAUCUCUGAGAGAAAUGCC"}}}
{"variants_of": "B1", "test": "self-cleavage, relative activity (ratio to wild type); higher = more cleavage; in vitro, sequencing; the parent is a self-cleaving ribozyme"}
{"variant": "G21A A31U", "self-cleavage": 1.43}
{"variant": "A22C U73C", "self-cleavage": 1.88}
{"variant": "G21U U119C", "self-cleavage": 1.84}
{"variant": "A22C A140G", "self-cleavage": 1.65}
{"variant": "U20G A79G", "self-cleavage": 1.17}
{"variant": "G21A A94G", "self-cleavage": 0.1}
{"variant": "U20A G137A", "self-cleavage": 1.29}
{"variant": "A22G G35U", "self-cleavage": 0.6}
{"variant": "U20G A67U", "self-cleavage": 0.11}
{"variant": "C19U G114A", "self-cleavage": 1.28}
{"variant": "U20A A69U", "self-cleavage": 0.1}
{"variant": "U20A A69C", "self-cleavage": 0.06}
{"variant": "U20C U109C", "self-cleavage": 1.34}
{"variant": "U20C U109A", "self-cleavage": 1.54}
{"variant": "A22G A129U", "self-cleavage": 0.67}
{"variant": "A22G A129G", "self-cleavage": 1.45}
{"variant": "U20C A129G", "self-cleavage": 2.29}
{"variant": "U20C A129U", "self-cleavage": 1.3}
{"variant": "G21U U115C", "self-cleavage": 2.18}
{"variant": "G21A A77G", "self-cleavage": 2.18}
{"variant": "G21A A77U", "self-cleavage": 1.18}
{"variant": "C19U U96A", "self-cleavage": 0.07}
{"variant": "U20C A79G", "self-cleavage": 1.5}
{"variant": "U20C A79U", "self-cleavage": 1.7}
{"variant": "A22G A140U", "self-cleavage": 1.05}
{"variant": "A22G A140G", "self-cleavage": 0.8}
{"variant": "A22G G40A", "self-cleavage": 0.55}
{"variant": "U20A A65G", "self-cleavage": 0.11}
{"variant": "A22G A107G", "self-cleavage": 0.82}
{"variant": "U20G C95U", "self-cleavage": 0.29}
{"variant": "A22G A79G", "self-cleavage": 0.76}
{"variant": "U20A G34A", "self-cleavage": 0.88}
{"variant": "A22C U119A", "self-cleavage": 2.09}
{"variant": "A22C A141G", "self-cleavage": 1.34}
{"variant": "U20C U100C", "self-cleavage": 1.69}
{"variant": "U20C U100A", "self-cleavage": 0.81}
{"variant": "U20C U102C", "self-cleavage": 1.25}
{"variant": "U20C U102A", "self-cleavage": 1.21}
{"variant": "U20A U134A", "self-cleavage": 0.92}
{"variant": "G21A A140G", "self-cleavage": 1.3}
{"variant": "U20C U104C", "self-cleavage": 1.51}
{"variant": "A22G A42U", "self-cleavage": 1.31}
{"variant": "A22G A42G", "self-cleavage": 0.93}
{"variant": "A22G G86A", "self-cleavage": 0.07}
{"variant": "U20C U29C", "self-cleavage": 1.27}
{"variant": "U20C U29A", "self-cleavage": 0.62}
{"variant": "U20A G122U", "self-cleavage": 1.59}
{"variant": "U20A A67G", "self-cleavage": 0.45}
{"variant": "U20A A67U", "self-cleavage": 0.13}
{"variant": "A22C A50G", "self-cleavage": 1.86}
{"variant": "U20A U112C", "self-cleavage": 0.79}
{"variant": "U20C U112G", "self-cleavage": 0.54}
{"variant": "C19U U62A", "self-cleavage": 0.07}
{"variant": "U20A C145U", "self-cleavage": 1.13}
{"variant": "U20C A43U", "self-cleavage": 1.4}
{"variant": "U20C A43G", "self-cleavage": 1.35}
{"variant": "C19U U102A", "self-cleavage": 1.19}
{"variant": "A22C A77U", "self-cleavage": 0.35}
{"variant": "U20A C28U", "self-cleavage": 1.3}
{"variant": "A22G G44A", "self-cleavage": 1.25}
{"variant": "U20A U26C", "self-cleavage": 1.11}
{"variant": "U20C U91C", "self-cleavage": 0.76}
{"variant": "U20C U91A", "self-cleavage": 0.55}
{"variant": "A22G A43G", "self-cleavage": 1.02}
{"variant": "U20C A64G", "self-cleavage": 0.41}
{"variant": "U20C A64U", "self-cleavage": 0.65}
{"variant": "A22C U85C", "self-cleavage": 0.35}
{"variant": "U20A G36C", "self-cleavage": 0.93}
{"variant": "U20A G36A", "self-cleavage": 0.94}
{"variant": "U20G G41U", "self-cleavage": 0.84}
{"variant": "U20A A92U", "self-cleavage": 0.92}
{"variant": "U20A A92G", "self-cleavage": 0.05}
{"variant": "G21A A129U", "self-cleavage": 1.17}
{"variant": "A22G A138G", "self-cleavage": 1.25}
{"variant": "A22G A78C", "self-cleavage": 1.45}
{"variant": "G21A C28U", "self-cleavage": 1.22}
{"variant": "U20A U29A", "self-cleavage": 1.05}
{"variant": "G21A U45C", "self-cleavage": 0.84}
{"variant": "G21A U45A", "self-cleavage": 1.58}
{"variant": "U20C G70U", "self-cleavage": 0.05}
{"variant": "U20C G70A", "self-cleavage": 0.14}
{"variant": "C19U U46C", "self-cleavage": 1}
{"variant": "G21A U39C", "self-cleavage": 0.78}
{"variant": "A22G U29C", "self-cleavage": 1.42}
